Target: T1, GST-SLR1 (rice (Oryza sativa), UniProt Q7G7J6 1-625)
T1 construct: SLENDER RICE 1 (SLR1), the rice DELLA protein; 'the cDNAs encoding SLR1'; source: E. coli Rosetta (DE3), purified (GSTrap FF column)
T1 sequence: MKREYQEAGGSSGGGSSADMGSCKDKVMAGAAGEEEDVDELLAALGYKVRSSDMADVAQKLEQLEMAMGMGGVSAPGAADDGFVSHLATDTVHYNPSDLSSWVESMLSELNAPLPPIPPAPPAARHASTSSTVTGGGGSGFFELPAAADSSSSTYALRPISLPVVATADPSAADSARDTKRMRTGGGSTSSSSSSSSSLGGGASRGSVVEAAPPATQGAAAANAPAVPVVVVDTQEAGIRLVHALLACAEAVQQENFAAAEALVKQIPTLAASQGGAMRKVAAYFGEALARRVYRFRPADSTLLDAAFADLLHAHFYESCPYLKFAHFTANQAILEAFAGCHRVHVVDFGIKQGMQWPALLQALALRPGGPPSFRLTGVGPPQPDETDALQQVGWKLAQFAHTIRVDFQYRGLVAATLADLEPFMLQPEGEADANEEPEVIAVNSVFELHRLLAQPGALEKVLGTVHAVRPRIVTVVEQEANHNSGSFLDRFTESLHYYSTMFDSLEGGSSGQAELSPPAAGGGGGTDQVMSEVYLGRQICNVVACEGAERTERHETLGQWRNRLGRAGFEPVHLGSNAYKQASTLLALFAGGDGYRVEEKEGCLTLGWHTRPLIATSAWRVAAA
Assay: pull-down; competitive pull-down: GST-SLR1 and MBP-His-OsGID1 with 100 µM GA3, then 10 or 50 µg TF-His-SP8 (or MBP-His-P2), 4 °C about 2 h; GST beads; anti-GST and anti-His blots
Conditions: both partners purified

B1: MBP-His-OsGID1 (receptor)
chain: MAGSDEVNRNECKTVVPLHTWVLISNFKLSYNILRRADGTFERDLGEYLDRRVPANARPLEGVSSFDHIIDQSVGLEVRIYRAAAEGDAEEGAAAVTRPILEFLTDAPAAEPFPVIIFFHGGSFVHSSASSTIYDSLCRRFVKLSKGVVVSVNYRRAPEHRYPCAYDDGWTALKWVMSQPFMRSGGDAQARVFLSGDSSGGNIAHHVAVRAADEGVKVCGNILLNAMFGGTERTESERRLDGKYFVTLQDRDWYWKAYLPEDADRDHPACNPFGPNGRRLGGLPFAKSLIIVSGLDLTCDRQLAYADALREDGHHVKVVQCENATVGFYLLPNTVHYHEVMEEISDFLNANLYY
notes: OsGID1, the rice gibberellin receptor GIBBERELLIN … DWARF1; also called PET32a-MBP-His-OsGID1; source: E. coli Rosetta (DE3), purified (Ni-NTA His-trap column)
- binding result: binds

— PMC9663503, “Independently evolved viral effectors convergently suppress DELLA protein SLR1-mediated broad-spectrum antiviral immunity in rice” (Nature Communications, 2022)
